Experimental data taken from patent US20150374794A1 (Novo Nordisk, published 2015).
Numbered stars: 1 amine (or outer) side, 2 acyl side, 3 side chain; on linkers, the order of the positions; unused ones are H or OH. Square brackets hold non-standard residues; d marks the D form. Side chains are listed from the residue outwards. Ends that are not written are not given here. * marks the point of attachment. C18 diacid = O=C(O)CCCCCCCCCCCCCCCCC(=O)*; γGlu = O=C(O)[C@H](CCC(=O)[*:2])N[*:1]; Ac4c = NC1(C(=O)O)CCC1; AEEA = NCCOCCOCC(=O)O; Aib = CC(C)(N)C(=O)O

Tests used:
human GLP-1 receptor [1] = target: T1, human GLP-1 receptor (human, UniProt P43220 24-463); assay: displacement of 125I-GLP-1(7-36)NH2, membranes with human GLP-1R, SPA
T1 construct: whole, on cells; the potency assay used whole cells (clone FCW467-12A/KZ10-1)
Description: (§1) The receptor binding of each compound to the human GLP-1 receptor was measured in a displacement binding assay. […] Each derivative was added in a series of concentrations to isolated membranes containing the human GLP-1 receptor and displacement of the labelled ligand was monitored. The receptor binding was reported as the concentration at which half of the labelled ligand was displaced from the receptor, the IC₅₀ value.

human glucagon receptor [2] = target: T2, human glucagon receptor (human, UniProt P47871 26-477); assay: cell-based or functional assay
T2 sequence (P47871 26-477): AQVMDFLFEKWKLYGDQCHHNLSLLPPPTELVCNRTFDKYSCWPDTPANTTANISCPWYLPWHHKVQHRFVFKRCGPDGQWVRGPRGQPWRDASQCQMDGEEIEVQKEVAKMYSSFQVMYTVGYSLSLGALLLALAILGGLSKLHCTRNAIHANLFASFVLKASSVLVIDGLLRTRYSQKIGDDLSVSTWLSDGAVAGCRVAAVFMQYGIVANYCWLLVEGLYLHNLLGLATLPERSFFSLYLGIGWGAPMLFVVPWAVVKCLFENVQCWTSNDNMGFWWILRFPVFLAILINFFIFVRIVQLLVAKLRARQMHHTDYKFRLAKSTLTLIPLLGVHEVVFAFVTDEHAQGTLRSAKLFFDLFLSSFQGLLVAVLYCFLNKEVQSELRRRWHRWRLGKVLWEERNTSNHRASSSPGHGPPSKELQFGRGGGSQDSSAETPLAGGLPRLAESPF

human GLP-1 receptor [3] = target: T1, human GLP-1 receptor; assay: cell-based or functional assay
human glucagon receptor [4] = target: T2, human glucagon receptor; assay: displacement of 125I-glucagon, membranes with human glucagon receptor, SPA
Description: as §1, with “human glucagon” for “human GLP-1”, “ligand is” for “ligand was”

Binder	IC50 (human GLP-1 receptor [1])	EC50 GlucR, CRE luciferase reporter gene assay in BHK cells (human glucagon receptor [2])	EC50 GLP-1R, CRE luciferase reporter gene assay in BHK cells (human GLP-1 receptor [3])	IC50 (human glucagon receptor [4])
H[Aib]QGTFTSDLSKYLESRRAREFVQWLLKT-NH2 (not fully specified (residue 28))	0.4 nM	0.0624 nM	0.0044 nM	6.7 nM
H[Aib]QGTFTSDLSKYLDK([γGlu-γGlu-AEEA-AEEA-γGlu-C18 diacid])RRAREFVQWLLNT-NH2 (N-terminus assumed; SMILES CC(C)C[C@H](NC(=O)[C@H](Cc1ccc(O)cc1)NC(=O)[C@H](CCCCN)NC(=O)[C@H](CO)NC(=O)[C@H](CC(C)C)NC(=O)[C@H](CC(=O)O)NC(=O)[C@H](CO)NC(=O)[C@@H](NC(=O)[C@H](Cc1ccccc1)NC(=O)[C@@H](NC(=O)CNC(=O)[C@H](CCC(N)=O)NC(=O)C(C)(C)NC(=O)[C@@H](N)Cc1c[nH]cn1)[C@@H](C)O)[C@@H](C)O)C(=O)N[C@@H](CC(=O)O)C(=O)N[C@@H](CCCCNC(=O)CC[C@H](NC(=O)CC[C@H](NC(=O)COCCOCCNC(=O)COCCOCCNC(=O)CC[C@H](NC(=O)CCCCCCCCCCCCCCCCC(=O)O)C(=O)O)C(=O)O)C(=O)O)C(=O)N[C@@H](CCCNC(=N)N)C(=O)N[C@@H](CCCNC(=N)N)C(=O)N[C@@H](C)C(=O)N[C@@H](CCCNC(=N)N)C(=O)N[C@@H](CCC(=O)O)C(=O)N[C@@H](Cc1ccccc1)C(=O)N[C@H](C(=O)N[C@@H](CCC(N)=O)C(=O)N[C@@H](Cc1c[nH]c2ccccc12)C(=O)N[C@@H](CC(C)C)C(=O)N[C@@H](CC(C)C)C(=O)N[C@@H](CC(N)=O)C(=O)N[C@H](C(N)=O)[C@@H](C)O)C(C)C)	0.5 nM	0.0423 nM	0.0092 nM	1.2 nM
H[Aib]HGTFTSDLSKYLEK([γGlu-AEEA-AEEA-γGlu-γGlu-C18 diacid])RRAREFVAWLLST-NH2 (N-terminus assumed; SMILES CC(C)C[C@H](NC(=O)[C@H](Cc1c[nH]c2ccccc12)NC(=O)[C@H](C)NC(=O)[C@@H](NC(=O)[C@H](Cc1ccccc1)NC(=O)[C@H](CCC(=O)O)NC(=O)[C@H](CCCNC(=N)N)NC(=O)[C@H](C)NC(=O)[C@H](CCCNC(=N)N)NC(=O)[C@H](CCCNC(=N)N)NC(=O)[C@H](CCCCNC(=O)CC[C@H](NC(=O)COCCOCCNC(=O)COCCOCCNC(=O)CC[C@H](NC(=O)CC[C@H](NC(=O)CCCCCCCCCCCCCCCCC(=O)O)C(=O)O)C(=O)O)C(=O)O)NC(=O)[C@H](CCC(=O)O)NC(=O)[C@H](CC(C)C)NC(=O)[C@H](Cc1ccc(O)cc1)NC(=O)[C@H](CCCCN)NC(=O)[C@H](CO)NC(=O)[C@H](CC(C)C)NC(=O)[C@H](CC(=O)O)NC(=O)[C@H](CO)NC(=O)[C@@H](NC(=O)[C@H](Cc1ccccc1)NC(=O)[C@@H](NC(=O)CNC(=O)[C@H](Cc1c[nH]cn1)NC(=O)C(C)(C)NC(=O)[C@@H](N)Cc1c[nH]cn1)[C@@H](C)O)[C@@H](C)O)C(C)C)C(=O)N[C@@H](CC(C)C)C(=O)N[C@@H](CO)C(=O)N[C@H](C(N)=O)[C@@H](C)O)	3.9 nM	0.0068 nM	0.0327 nM	1.9 nM
H[Aib]QGTFTSDLSKYLDK([γGlu-γGlu-AEEA-γGlu-γGlu-C18 diacid])RRAQEFVQWLLNT-NH2 (N-terminus assumed; SMILES CC(C)C[C@H](NC(=O)[C@H](Cc1ccc(O)cc1)NC(=O)[C@H](CCCCN)NC(=O)[C@H](CO)NC(=O)[C@H](CC(C)C)NC(=O)[C@H](CC(=O)O)NC(=O)[C@H](CO)NC(=O)[C@@H](NC(=O)[C@H](Cc1ccccc1)NC(=O)[C@@H](NC(=O)CNC(=O)[C@H](CCC(N)=O)NC(=O)C(C)(C)NC(=O)[C@@H](N)Cc1c[nH]cn1)[C@@H](C)O)[C@@H](C)O)C(=O)N[C@@H](CC(=O)O)C(=O)N[C@@H](CCCCNC(=O)CC[C@H](NC(=O)CC[C@H](NC(=O)COCCOCCNC(=O)CC[C@H](NC(=O)CC[C@H](NC(=O)CCCCCCCCCCCCCCCCC(=O)O)C(=O)O)C(=O)O)C(=O)O)C(=O)O)C(=O)N[C@@H](CCCNC(=N)N)C(=O)N[C@@H](CCCNC(=N)N)C(=O)N[C@@H](C)C(=O)N[C@@H](CCC(N)=O)C(=O)N[C@@H](CCC(=O)O)C(=O)N[C@@H](Cc1ccccc1)C(=O)N[C@H](C(=O)N[C@@H](CCC(N)=O)C(=O)N[C@@H](Cc1c[nH]c2ccccc12)C(=O)N[C@@H](CC(C)C)C(=O)N[C@@H](CC(C)C)C(=O)N[C@@H](CC(N)=O)C(=O)N[C@H](C(N)=O)[C@@H](C)O)C(C)C)	1.4 nM	0.0588 nM	0.0266 nM	5.9 nM
H[Aib]QGTFTSDLSKYLESRRARDFVQWLLK([AEEA-AEEA-γGlu-γGlu-γGlu-C18 diacid])T-NH2 (N-terminus assumed; SMILES CC(C)C[C@H](NC(=O)[C@H](Cc1ccc(O)cc1)NC(=O)[C@H](CCCCN)NC(=O)[C@H](CO)NC(=O)[C@H](CC(C)C)NC(=O)[C@H](CC(=O)O)NC(=O)[C@H](CO)NC(=O)[C@@H](NC(=O)[C@H](Cc1ccccc1)NC(=O)[C@@H](NC(=O)CNC(=O)[C@H](CCC(N)=O)NC(=O)C(C)(C)NC(=O)[C@@H](N)Cc1c[nH]cn1)[C@@H](C)O)[C@@H](C)O)C(=O)N[C@@H](CCC(=O)O)C(=O)N[C@@H](CO)C(=O)N[C@@H](CCCNC(=N)N)C(=O)N[C@@H](CCCNC(=N)N)C(=O)N[C@@H](C)C(=O)N[C@@H](CCCNC(=N)N)C(=O)N[C@@H](CC(=O)O)C(=O)N[C@@H](Cc1ccccc1)C(=O)N[C@H](C(=O)N[C@@H](CCC(N)=O)C(=O)N[C@@H](Cc1c[nH]c2ccccc12)C(=O)N[C@@H](CC(C)C)C(=O)N[C@@H](CC(C)C)C(=O)N[C@@H](CCCCNC(=O)COCCOCCNC(=O)COCCOCCNC(=O)CC[C@H](NC(=O)CC[C@H](NC(=O)CC[C@H](NC(=O)CCCCCCCCCCCCCCCCC(=O)O)C(=O)O)C(=O)O)C(=O)O)C(=O)N[C@H](C(N)=O)[C@@H](C)O)C(C)C)	0.2 nM	0.129 nM	0.003 nM	19 nM
H[Ac4c]QGTFTSDLSKYLESRRAQDFVQWLLK([AEEA-AEEA-γGlu-γGlu-γGlu-C18 diacid])T-NH2 (N-terminus assumed; SMILES CC(C)C[C@H](NC(=O)[C@H](Cc1ccc(O)cc1)NC(=O)[C@H](CCCCN)NC(=O)[C@H](CO)NC(=O)[C@H](CC(C)C)NC(=O)[C@H](CC(=O)O)NC(=O)[C@H](CO)NC(=O)[C@@H](NC(=O)[C@H](Cc1ccccc1)NC(=O)[C@@H](NC(=O)CNC(=O)[C@H](CCC(N)=O)NC(=O)C1(NC(=O)[C@@H](N)Cc2c[nH]cn2)CCC1)[C@@H](C)O)[C@@H](C)O)C(=O)N[C@@H](CCC(=O)O)C(=O)N[C@@H](CO)C(=O)N[C@@H](CCCNC(=N)N)C(=O)N[C@@H](CCCNC(=N)N)C(=O)N[C@@H](C)C(=O)N[C@@H](CCC(N)=O)C(=O)N[C@@H](CC(=O)O)C(=O)N[C@@H](Cc1ccccc1)C(=O)N[C@H](C(=O)N[C@@H](CCC(N)=O)C(=O)N[C@@H](Cc1c[nH]c2ccccc12)C(=O)N[C@@H](CC(C)C)C(=O)N[C@@H](CC(C)C)C(=O)N[C@@H](CCCCNC(=O)COCCOCCNC(=O)COCCOCCNC(=O)CC[C@H](NC(=O)CC[C@H](NC(=O)CC[C@H](NC(=O)CCCCCCCCCCCCCCCCC(=O)O)C(=O)O)C(=O)O)C(=O)O)C(=O)N[C@H](C(N)=O)[C@@H](C)O)C(C)C)	0.8 nM	0.024 nM	0.007 nM	7.7 nM
H[Aib]QGTFTSDLSKYLDARRARDFVQWLLK([AEEA-AEEA-γGlu-γGlu-γGlu-C18 diacid])T-NH2 (N-terminus assumed; SMILES CC(C)C[C@H](NC(=O)[C@H](Cc1ccc(O)cc1)NC(=O)[C@H](CCCCN)NC(=O)[C@H](CO)NC(=O)[C@H](CC(C)C)NC(=O)[C@H](CC(=O)O)NC(=O)[C@H](CO)NC(=O)[C@@H](NC(=O)[C@H](Cc1ccccc1)NC(=O)[C@@H](NC(=O)CNC(=O)[C@H](CCC(N)=O)NC(=O)C(C)(C)NC(=O)[C@@H](N)Cc1c[nH]cn1)[C@@H](C)O)[C@@H](C)O)C(=O)N[C@@H](CC(=O)O)C(=O)N[C@@H](C)C(=O)N[C@@H](CCCNC(=N)N)C(=O)N[C@@H](CCCNC(=N)N)C(=O)N[C@@H](C)C(=O)N[C@@H](CCCNC(=N)N)C(=O)N[C@@H](CC(=O)O)C(=O)N[C@@H](Cc1ccccc1)C(=O)N[C@H](C(=O)N[C@@H](CCC(N)=O)C(=O)N[C@@H](Cc1c[nH]c2ccccc12)C(=O)N[C@@H](CC(C)C)C(=O)N[C@@H](CC(C)C)C(=O)N[C@@H](CCCCNC(=O)COCCOCCNC(=O)COCCOCCNC(=O)CC[C@H](NC(=O)CC[C@H](NC(=O)CC[C@H](NC(=O)CCCCCCCCCCCCCCCCC(=O)O)C(=O)O)C(=O)O)C(=O)O)C(=O)N[C@H](C(N)=O)[C@@H](C)O)C(C)C)	0.2 nM	0.0113 nM	0.0043 nM	2.6 nM
